Assays:
[1] = target: SARS-COV-2 RBD extracellular domain expressed with a C-terminal mouse IgG2a (SARS-COV-2 RBD-mFc) (SARS-CoV-2); assay: SPR, captured mAb, RBD-mFc in solution, 37 C
[2] = target: SARS-COV-2 RBD extracellular domain expressed with a C-terminal mouse IgG2a (SARS-CoV-2); assay: SPR Biacore, mAb captured via anti-hFc, 25 C

B1: mAb10913 (antibody, V domains shown)
VH: EVQLVESGGGLVQPGGSLRLSCAASGFTFRNYEMNWVRQAPGKGLEWVSYITSSGSTMYYADSVKGRFTISRDNAKNSLYLQMNSLRAEDTAVYYCARDGFYYYYAMDVWGQGTTVTVSS
VL: QSVLTQPPSVSAAPGQKVTISCSGSSSNIGNNYVSWYQQLPGTAPKLLIYDNNKRPSGIPDRFSGSKSGTSATLGITGLQTGDEADYYCGTWDSSLSVGRVFGTGTKVTVLG
- Kd [1]: 0.274 nM
- koff [1]: 0.00173 s⁻¹
- kon [1]: 6.32e+06 M⁻¹ s⁻¹
- t½ [1]: 0.112 h

B2: mAb10934 (antibody, V domains shown)
VH: not shown
VL: DIQMTQSPSSLSASVGDRVTITCQASQDIWNYINWYQQKPGKAPKLLIYDASNLKTGVPSRFSGSGSGTDFTFTISSLQPEDIATYYCQQHDDLPPTFGQGTKVEIKR
- Kd [1]: 0.0216 nM
- t½ [1]: 0.657 h

B3: mAb10938 (antibody, V domains shown)
VH: EVQLVESGGGLVQPGGSLRLSCAVSGFTVSSNYMSWVRQAPGKGLEWVSLIYSGGSTFYADSVKGRFTISRHNSKNTLYLQMNSLRAEDTAVYYCAREGGYSYDYNYWGQGTLVTVSS
VL: DIQMTQSPSSLSASVGDRVTITCQASQDIRNYLNWYQQKPGKAPKLLIYDASNLETGVPSRFSGIGSGTDFTFTISSLQPEDIATYYCQQYDNLPITFGQGTRLEIKR
- Kd [1]: 0.173 nM
- t½ [1]: 2.94 h

B4: mAb10935 (antibody, V domains shown)
VH: EVQLVESGGGLVQPGGSLRLSCAASGFTVSSNYMSWVRQAPGKGLEWVSLIYSGGSTYYADSVKGRFTISRHNSKNTLYLQMNSLRSEDTAVYYCARVPLGDYYYGMDVWGQGTTVTVSS
VL: DIQMTQSPSSLSASVGDRVTITCQASQDINKYLNWYQQKPGKAPKLLIYDASNLETGVPSRFSGSGSGTDFTFTISSLQPEDIATYYCQQSDNLPLTFGGGTKVEIKR
- Kd [1]: 0.0869 nM
- koff [1]: 0.000494 s⁻¹
- kon [1]: 5.68e+06 M⁻¹ s⁻¹
- t½ [1]: 0.39 h

B5: mAb10989 (antibody, V domains shown)
VH: QVQLVQSGAEVKKPGASVKVSCKASGYIFTGYYMHWVRQAPGQGLEWMGWINPNSGGANYAQKFQGRVTLTRDTSITTVYMELSRLRFDDTAVYYCARGSRYDWNQNNWFDPWGQGTLVTVSS
VL: QSALTQPASVSGSPGQSITISCTGTSSDVGTYNYVSWYQQHPGKAPKLMIFDVSNRPSGVSDRFSGSKSGNTASLTISGLQAEDEADYYCSSFTTSSTVVFGGGTKLTVLG
- Kd [2]: 0.00895 nM
- t½ [2]: 2 h

B6: mAb10998 (antibody, V domains shown)
VH: EVQLVESGGGLVHPGGSLRLSCAASGLTVSSNYMSWVRQAPGKGLEWVSVIYSGGSTYYADSVKGRFTISRHNSKNTLFLQMNSLRAEDTAVYYCARDRPITGTTLDVWGQGTTVTVSS
VL: DIQMTQSPSSLFASVGDRVTITCRASQSISSYLNWYQQKPGKAPKLLIYAASSLQSGVPSRFSGSGSGTDFTLTISSLQPEDFAFYYCQQTYSTPPITFGQGTRLEIKR
- Kd [2]: 2.44 nM
- koff [2]: 0.00358 s⁻¹
- kon [2]: 1.47e+06 M⁻¹ s⁻¹
- t½ [2]: 0.0533 h

B7: mAb10939 (antibody, V domains shown)
VH: EVQLVESGGGLVQPGGSLRLSCAASGLTVSSNYMNWVRQVPGKGLEWVSVIYSGGSKFYVDSVKGRFTISRHNSKNTLYLQMNSLRPEDTAVYYCTRDAQYYGMDVWGQGTTVTVSS
VL: DIQMTQSPSSLSASVGDRVTITCRASQSISTYLHWYQQKPGEAPKLLIYAASSLQSGVPSRFSGSGSGTDFTLTISSLQPEDFATYYCQQSYSTPPEIFGQGTKLEIKR
- Kd [1]: 0.155 nM
- koff [1]: 0.000165 s⁻¹
- kon [1]: 1.06e+06 M⁻¹ s⁻¹
- t½ [1]: 1.17 h

B8: mAb10920 (antibody, V domains shown)
VH: QVQLVESGGGVVQPGRSLRLSCAASGFTFSYYGMHWVRQAPGKGLEWVAVIWYDGSNKFYADSVKGRFTISRDNSKNTLYLQMNSLRAEDTAVYYCAAARPGYYYGMDVWGQGTTVTVSS
VL: DIQMTQSPSSLSASVGDRVTITCRASQGISNYLAWFQQKPGKAPNSLIYAASSLQRGVPSKFSGSGSGTDFTLTISSLQPEDFATYYCQQYNSYPRTFGQGTKVEIKR
- Kd [1]: 0.119 nM
- t½ [1]: 0.255 h

B9: mAb10937 (antibody, V domains shown)
VH: QITLKESGPTLVKPTQTLTLTCTFSGFSLSTNVVGVGWIRQPPGKALEWLALIYWNDDKRYSPSLKSRLTITKDTSKNQVVLTMTNMDPVDTATYYCAHGPTGDYFDYWGQGTLVTVSS
VL: not shown
- Kd [1]: 0.0129 nM
- koff [1]: 5.74e-05 s⁻¹
- kon [1]: 4.47e+06 M⁻¹ s⁻¹
- t½ [1]: 3.35 h

B10: mAb11004 (antibody, V domains shown)
VH: QVQLVESGGGVVQPGRSLRLSCVASGFTFSIYGMDWVRQAPGKGLEWVAVISYDGSNKYYADSVKGRFTISRDNSKNTLYLQMNSLRPEDTAVYYCAKDREAAADAFDIWGQGTMVTVSS
VL: DIQMTQSPSSVSASVGDRVTITCRASQGISSWLAWYQQKPGKAPKLLIYAASSLHSGVPSRFSGSGSGTDFTLTISSLQPEDFATYYCQQANSFRLTFGGGTKVEIKR
- Kd [2]: 0.0921 nM
- koff [2]: 6.4e-05 s⁻¹
- kon [2]: 695000 M⁻¹ s⁻¹
- t½ [2]: 3.01 h

B11: mAb10930 (antibody, V domains shown)
VH: EVQLVESGGGLVQPGRSLRLSCAASGFTFDDYAMYWVRQAPGKGLEWVSGISWNSGSIGYADSVKGRFTISRDNAKNSLYLQMNSLRAADTALYYCAKDKDWNSRGYYYYGMDVWGQGTTVTVSS
VL: not shown
- Kd [1]: 0.399 nM
- koff [1]: 0.000597 s⁻¹
- kon [1]: 1.49e+06 M⁻¹ s⁻¹
- t½ [1]: 0.322 h

B12: mAb10932 (antibody, V domains shown)
VH: EVQLVESGGGLVQSGGSLRLSCAASGLTVSSNYMSWVRQAPGKGLEWVSVIYSGGSTFYSDSVKGRFTISRHNSKNTLYLQMNSLRAEDTAVYYCARARGDAFDIWGQGTMVTVSS
VL: not shown
- Kd [1]: 0.153 nM
- koff [1]: 6.86e-05 s⁻¹
- kon [1]: 448000 M⁻¹ s⁻¹
- t½ [1]: 2.81 h

B13: mAb10921 (antibody, V domains shown)
VH: EVQLVESGGGLVQPGGSLRLSCAASGITVSSNYMSWVRQAPGKGLEWVSVIYSGGSTFYADSVKGRFTISRHNSKNTLYLQMNSLRAEDTAVYYCARERNFDAFDIWGQGTMVTVSS
VL: DIQMTQSPSSVSASVGDRVTITCRASQGISSWLAWYQQKPGKAPKLLIYAASSLQSGVPSRFSGSGSGTDFTLTISSLQPEDFATYYCQQANSFPLFTFGPGTKVDIKR
- Kd [1]: 0.273 nM
- koff [1]: 0.000125 s⁻¹
- kon [1]: 458000 M⁻¹ s⁻¹
- t½ [1]: 1.54 h

B14: mAb10986 (antibody, V domains shown)
VH: EVQLVESGGGLVQPGGSLRLSCAASEFTVSSNYMSWVRQAPGKGLEWVSVIYSGGSTFYADSVKGRFTISRDNSKNTLYLQMNSLRAEDTAVYYCARALPYGDLHFDYWGQGTLVTVSS
VL: QSVLTQPPSVSGAPGQRVTISCTGSSSNIGTGYDVHWYQQLPGTAPKLLIYGNTNRPSGVPDRFSGSKSGTSASLAITGLQAEDEADYYCQSYDSSLSDSYVFGTGTKVTVLG
- Kd [2]: 0.00888 nM
- t½ [2]: 8.02 h

B15: mAb11006 (antibody, V domains shown)
VH: EVQLVESGGGLVQPGGSLRLSCAASGFIVSRNYMSWVRQAPGKGLEWVSVIYSGGSTFYADSVKGRFTISRHNSKNTLYLQMNSLKAEDTAVYYCARELRGYFDYWGQGTLVTVSS
VL: DIQLTQSPSFLSASVGDRVTITCWASQGISSYLAWYQQKPGKAPKLLIYAASTLQSGVPSRFSGSGSGTEFTLTISSLQPEDFATYYCQLLNSYPYTFGQGTKLEIKR
- Kd [2]: 0.158 nM
- t½ [2]: 3.69 h

B16: mAb11008 (antibody, V domains shown)
VH: EVQLVESGGGLVQPGGSLRLSCAASGFTVSSNYMTWVRQAPGKGLEWVSVIYSGGSTFYADSVKGRFTISRHNSENTLYLQMNSLRAEDTAVYYCARDLAAAGTDYWGQGALVTVSS
VL: DIQLTQSPSFLSASVGDRVTITCWASQGISSYLAWYQQKPGKAPKLLIYAASTLQSGVPSRFSGSGSGTEFTLTISSLQPDDFATYYCQHLNSYLYTFGQGTKLEIKR
- Kd [2]: 0.492 nM
- koff [2]: 0.000192 s⁻¹
- kon [2]: 390000 M⁻¹ s⁻¹
- t½ [2]: 1 h

B17: mAb10915 (antibody, V domains shown)
VH: EVQLVESGGGLVQPGGSLRLSCAASGFTVSSNYMNWVRQAPGKGLEWVSVIYSGGSTFYADSVKGRFTISRHNSKNTLYLQMNSLRPEDTAVYYCARDLGGYFDYWGQGTLVTVSS
VL: not shown
- Kd [1]: 0.156 nM
- t½ [1]: 2.79 h

B18: mAb10914 (antibody, V domains shown)
VH: EVQLVESGGGLVQPGGSLRLSCAASGLIVSRNYMIWVRQAPGKGLEWVSVIYSGGSTFYADSVKGRFTISRHNSKNTLYLQMNSLRAEDTAVYYCARDLGTGGMDVWGQGTTVTVSS
VL: DIQLTQSPSFLSASVGDRVTITCWASQGISSYLAWYQQKPGKAPKLLIYAASTLQSGVPSRFSGSGSGTEFTLTISSLQPEDFATYYCQQLNSYPLTFGGGTKVEIKR
- Kd [1]: 0.318 nM
- t½ [1]: 0.875 h

B19: mAb11002 (antibody, V domains shown)
VH: EVQLVESGGGLVQPGGSLRLSCAASGFTVSSNYMSWVRQAPGKGLEWVSVIYSGGSTFYADSVKGRFTISRHNSKNTLYLQMNSLRAEDTAVYYCAREGYGMDVWGQGTTVTVSS
VL: not shown
- Kd [2]: 4.46 nM
- t½ [2]: 0.0783 h

B20: mAb11010 (antibody, V domains shown)
VH: QVQLVESGGGVVQPGRSLRLSCAASGFTFSSYGMHWVRQAPGKGLEWVAVISYDGSYKYYADSVKGRFTISRDNSKNTLYLQMNSLRAEDTAVYYCAIDGGTVTTIFDYWGQGTLVTVSS
VL: not shown
- Kd [2]: 0.0789 nM
- t½ [2]: 2.14 h

B21: mAb10936 (antibody, V domains shown)
VH: QVQLVESGGGVVQPGRSLRLSCAASGFTFRNYGMHWVRQAPGKGLEWVSVIWYDGSNRYYADSVKGRFTISRDTSKNTLYLQMNSLRAEDTAVYYCARDPPITGTTGGDAFDIWGQGTMVTVSS
VL: not shown
- Kd [1]: 0.0177 nM
- koff [1]: 6.75e-05 s⁻¹
- kon [1]: 3.81e+06 M⁻¹ s⁻¹
- t½ [1]: 2.85 h

B22: mAb10923 (antibody, V domains shown)
VH: QVQLVQSGAEVKKPGASVKVSCKASGYTFINYYIHWVRQAPGQGLEWMGWINPNSGGTNYAQKFQGRVTMTRDTSISTAYMELSRLRSDDTAVYYCAIITIFGVVTWFDPWGQGTLVTVSS
VL: not shown
- Kd [1]: 0.0336 nM
- koff [1]: 0.000185 s⁻¹
- kon [1]: 5.53e+06 M⁻¹ s⁻¹
- t½ [1]: 1.04 h

Reference: patent US20240043504A1 (published 2024)
